In article PMC9482650, “Quantitative fragmentomics allow affinity mapping of interactomes” (Nature Communications, 2022):

Assays:
Experiment in all cases: holdup assay
Set-up in all cases: key: below the threshold = too weak to quantify, mostly under pKd 3.1 to 4
[1] = target: GRIP2_7, Q9C0E4
[2] = target: T1, LIN7A, O14910
T1 sequence (O14910 103-200, limits assumed, looked up): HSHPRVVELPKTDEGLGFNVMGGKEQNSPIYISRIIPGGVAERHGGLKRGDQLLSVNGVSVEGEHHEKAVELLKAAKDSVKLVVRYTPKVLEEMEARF

[3] = target: T2, LRRC7, Q96NW7
T2 sequence (Q96NW7 1440-1537, limits assumed, looked up): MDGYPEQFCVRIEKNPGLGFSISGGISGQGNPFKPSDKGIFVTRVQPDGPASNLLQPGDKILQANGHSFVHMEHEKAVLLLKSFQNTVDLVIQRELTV

[4] = target: DLG1_2, Q12959
[5] = target: T3, ARHGAP21, Q5T5U3
T3 sequence (Q5T5U3 45-169, limits assumed, looked up): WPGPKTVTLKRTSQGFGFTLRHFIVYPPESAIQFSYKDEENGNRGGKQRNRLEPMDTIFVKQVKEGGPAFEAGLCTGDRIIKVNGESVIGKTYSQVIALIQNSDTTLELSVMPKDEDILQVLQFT

[6] = target: GRID2IP_1, A4D2P6
[7] = target: DLG1_3, Q12959
[8] = target: DLG2_2, Q15700
[9] = target: Inadl_10, Q8NI35
[10] = target: T4, MPDZ_5, O75970
T4 sequence (O75970 695-796, limits assumed, looked up): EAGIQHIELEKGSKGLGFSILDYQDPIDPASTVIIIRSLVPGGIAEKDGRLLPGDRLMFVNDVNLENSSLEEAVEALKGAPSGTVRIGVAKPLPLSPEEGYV

[11] = target: T5, RAPGEF6, Q8TEU7
T5 sequence (Q8TEU7 525-625, limits assumed, looked up): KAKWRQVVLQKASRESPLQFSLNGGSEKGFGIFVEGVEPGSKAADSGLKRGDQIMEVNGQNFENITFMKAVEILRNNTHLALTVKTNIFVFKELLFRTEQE

[12] = target: T6, PCLO, Q9Y6V0
T6 sequence (Q9Y6V0 4491-4600, limits assumed, looked up): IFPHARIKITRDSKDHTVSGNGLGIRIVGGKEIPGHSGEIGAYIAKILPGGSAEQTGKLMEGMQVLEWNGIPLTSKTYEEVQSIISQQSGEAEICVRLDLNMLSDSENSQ

[13] = target: GOPC, Q9HD26
[14] = target: DLG4_3, P78352
[15] = target: DLG2_3, Q15700
[16] = target: T7, SYNJ2BP, P57105
T7 sequence (P57105 8-110, limits assumed, looked up): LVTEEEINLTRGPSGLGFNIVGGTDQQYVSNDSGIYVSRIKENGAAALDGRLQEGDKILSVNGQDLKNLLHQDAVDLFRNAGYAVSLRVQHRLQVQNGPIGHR

[17] = target: T8, PDZD7_3, Q9H5P4
T8 sequence (Q9H5P4 857-944, limits assumed, looked up): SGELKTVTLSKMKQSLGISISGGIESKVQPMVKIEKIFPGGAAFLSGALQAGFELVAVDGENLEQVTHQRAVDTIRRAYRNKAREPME

[18] = target: T9, SIPA1L2, Q9P2F8
T9 sequence (Q9P2F8 945-1036, limits assumed, looked up): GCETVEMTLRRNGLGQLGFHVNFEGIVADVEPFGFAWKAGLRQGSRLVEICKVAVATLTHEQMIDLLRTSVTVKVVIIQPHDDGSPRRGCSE

[19] = target: GRIP2_3, Q9C0E4
[20] = target: FRMPD2_2, Q68DX3
[21] = target: T10, SNTB1, Q13884
T10 sequence (Q13884 107-205, limits assumed, looked up): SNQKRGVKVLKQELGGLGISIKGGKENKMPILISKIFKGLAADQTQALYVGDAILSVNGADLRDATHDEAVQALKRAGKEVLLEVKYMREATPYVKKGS

[22] = target: T11, PTPN13_1, Q12923
T11 sequence (Q12923 1088-1188, limits assumed, looked up): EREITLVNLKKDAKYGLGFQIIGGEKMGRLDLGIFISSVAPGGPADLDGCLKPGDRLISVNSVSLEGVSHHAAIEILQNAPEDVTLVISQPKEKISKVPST

[23] = target: GIPC2, Q8TF65
[24] = target: HTRA1, Q92743
[25] = target: T12, PARD3B_1, Q8TEW8
T12 sequence (Q8TEW8 196-299, limits assumed, looked up): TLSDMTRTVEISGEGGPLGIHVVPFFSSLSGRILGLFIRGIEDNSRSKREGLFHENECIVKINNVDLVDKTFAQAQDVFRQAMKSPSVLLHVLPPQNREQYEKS

[26] = plain residues with an end cap or a label only (N-terminal biotin on a linker: ttds)
[27] = plain residues with an end cap or a label only (N-terminal biotin on a linker: ahx)
[28] = plain residues with an end cap or a label only (N-terminal biotin on a linker: ado-ado)

Measured: pKd

GRIP2_3, Q9C0E4, sequence (Q9C0E4 238-339): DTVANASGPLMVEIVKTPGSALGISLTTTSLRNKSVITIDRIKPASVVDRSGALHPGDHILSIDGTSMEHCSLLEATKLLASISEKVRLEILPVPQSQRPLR
Inadl_10, Q8NI35, sequence (Q8NI35 1673-1763): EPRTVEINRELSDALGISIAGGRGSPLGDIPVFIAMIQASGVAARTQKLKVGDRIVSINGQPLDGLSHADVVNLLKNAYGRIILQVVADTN
GIPC2, Q8TF65, sequence (Q8TF65 112-203): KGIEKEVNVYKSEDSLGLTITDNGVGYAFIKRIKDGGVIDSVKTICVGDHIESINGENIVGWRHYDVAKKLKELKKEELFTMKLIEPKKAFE
FRMPD2_2, Q68DX3, sequence (Q68DX3 944-1038): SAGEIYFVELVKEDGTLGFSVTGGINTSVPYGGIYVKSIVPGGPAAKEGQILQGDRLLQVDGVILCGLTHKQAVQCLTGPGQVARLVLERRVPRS
DLG4_3, P78352, sequence (P78352 306-403): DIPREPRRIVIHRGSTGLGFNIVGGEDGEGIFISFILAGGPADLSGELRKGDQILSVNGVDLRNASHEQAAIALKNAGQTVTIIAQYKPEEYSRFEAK
DLG1_2, Q12959, sequence (Q12959 314-412): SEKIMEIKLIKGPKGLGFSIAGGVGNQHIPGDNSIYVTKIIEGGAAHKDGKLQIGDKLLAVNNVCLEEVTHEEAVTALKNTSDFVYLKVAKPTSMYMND
GRIP2_7, Q9C0E4, sequence (Q9C0E4 934-1023): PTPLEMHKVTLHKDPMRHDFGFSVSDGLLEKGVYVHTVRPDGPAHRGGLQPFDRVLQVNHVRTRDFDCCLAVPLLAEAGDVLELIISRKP
GRID2IP_1, A4D2P6, sequence (A4D2P6 1-87): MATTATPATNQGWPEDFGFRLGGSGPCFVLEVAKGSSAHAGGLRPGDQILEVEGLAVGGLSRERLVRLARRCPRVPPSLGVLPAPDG
DLG1_3, Q12959, sequence (Q12959 457-571): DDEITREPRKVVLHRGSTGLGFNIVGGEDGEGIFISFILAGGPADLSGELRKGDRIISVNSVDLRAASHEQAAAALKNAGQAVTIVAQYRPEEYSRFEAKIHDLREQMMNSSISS
HTRA1, Q92743, sequence (Q92743 360-477): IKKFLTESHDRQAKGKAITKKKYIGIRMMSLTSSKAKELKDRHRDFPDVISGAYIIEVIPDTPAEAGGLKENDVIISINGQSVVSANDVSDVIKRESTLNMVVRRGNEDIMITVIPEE

NQLAWFDTDL [CTNNB1, P35222]
3.94: [3]; [26]
4.88: [5]; [26]
4.09: [16]; [26]
3.8: [23]; [26]
below the threshold: [1]; [26] | [2]; [26] | [4]; [26] | [6]; [26] | [7]; [26] | [8]; [26] | [9]; [26] | [10]; [26] | [11]; [26] | [12]; [26] | [13]; [26] | [14]; [26] | [15]; [26] | [17]; [26] | [18]; [26] | [19]; [26] | [20]; [26] | [21]; [26] | [22]; [26] | [24]; [26] | [25]; [26]

TIVSWPGTFL [LNX1, Q8TBB1]
4.31: [25]; [27]
3.75: [13]; [27]
4.61: [24]; [27]
below the threshold: [1]; [27] | [2]; [27] | [3]; [27] | [4]; [27] | [5]; [27] | [6]; [27] | [7]; [27] | [8]; [27] | [10]; [27] | [11]; [27] | [12]; [27] | [14]; [27] | [15]; [27] | [18]; [27] | [19]; [27] | [21]; [27] | [22]; [27] | [23]; [27]
4.49: [16]; [27]
3.58: [20]; [27]
4.13: [17]; [27]
4.25: [9]; [27]

GKKSVKHSKI [ACOT6, Q3I5F7]
below the threshold: [1]; [28] | [2]; [28] | [3]; [28] | [6]; [28] | [7]; [28] | [9]; [28] | [10]; [28] | [11]; [28] | [12]; [28] | [16]; [28] | [18]; [28] | [19]; [28] | [20]; [28] | [23]; [28] | [24]; [28] | [25]; [28]
3.68: [13]; [28] | [14]; [28]
4.58: [17]; [28]
3.65: [15]; [28]
4.06: [5]; [28]
3.92: [21]; [28]
3.47: [22]; [28]
3.97: [4]; [28]
3.56: [8]; [28]
